{
  "source": "paper PMC4679524",
  "key": {"[1]": {"target": "GST-LE, dual phosphorylated (CK2 plus Syk, 2 added phosphates) (encephalomyocarditis virus (EMCV))", "sequence (P03304 1-67 limits assumed)": "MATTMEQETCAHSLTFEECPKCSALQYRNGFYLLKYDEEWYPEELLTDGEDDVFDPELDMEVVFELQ", "experiment": "SEC"}, "[2]": {"target": "GST-LE, singly phosphorylated (reacted with CK2, 1 added phosphate) (encephalomyocarditis virus (EMCV))", "sequence (P03304 1-67 limits assumed)": "as above", "experiment": "pull-down"}, "[3]": {"target": "GST-LE, dual phosphorylated (CK2 plus Syk, 2 added phosphates) (encephalomyocarditis virus (EMCV))", "experiment": "pull-down"}},
  "data": [
    {"substance": "rCrm1 (recombinant His-tagged murine Crm1) (from UniProt Q6P5F9 1-1071) (natural protein)", "values": [
      {"measurement": "stoichiometry N", "setting": "[1]", "result": 1},
      {"measurement": "percent stronger rCrm1 signal per unit of GST(-LE) than without phosphate", "setting": "[2]", "result": "50 to 70", "unit": "%"},
      {"measurement": "percent stronger rCrm1 signal per unit of GST(-LE) than without phosphate", "setting": "[3]", "result": "50 to 70", "unit": "%"}
    ]}
  ]
}
